Here are results for eleven molecules from paper PMC4589357, “The Role of Electrostatic Interactions in Binding of Histone H3K4me2/3 to the Sgf29 Tandem Tudor Domain” (PLoS ONE, 2015).

Non-standard residues stand in square brackets, D forms with d. Primed or numbered codes have the meaning given here. No end group written: not given here. Lys(Me3) = C[N+](C)(C)CCCC[C@H](N)C(=O)O; Me3″ = trimethyl-lysine

Data set [1] is described as follows: Differential scanning fluorimetry (DSF) melting temperature of Sgf29 and variants. It counts as physicochemical, Homo sapiens. Conditions: for Tm: SYPRO-Orange fluorescence, 25 mM TRIS pH 7.5, 50 mM NaCl, 1 mM DTT, 2.5 μl of 25 μM protein in 25 μl, 20–95°C, 1°C min^-1, ± SD, measured in triplicate. On the procedure:
Wild-type and variant Sgf29 reader domain proteins (Homo sapiens, residues 115–293) were expressed in terrific broth (TB) medium containing 50 μg ml^-1 kanamycin, using E. coli Rosetta BL21 DE3 PlysS as expression host. Bacteria were cultured to OD600 ≈ 0.6 at 37°C, 200 rpm after which the cultures were induced using 1 mM IPTG (final conc.). Cultures were then incubated at 16°C for 16 hours. Cells were harvested and lysed by sonication in 1x PBS, 250 mM NaCl, 5% glycerol, 0.2% CHAPS, 10mM β-mercaptoethanol. Lysate was centrifuged and the supernatant purified using Ni-NTA beads. The 6xHis tag was cleaved off overnight at 4°C using TEV-protease. Size exclusion chromatography, using a superdex 75 column, was employed as a final purification step with 25 mM TRIS pH 8.0, 50 mM NaCl, 1 mM DTT as eluent. Protein concentrations were determined by UV/Vis spectroscopy at 280 nm.
Sgf29 protein melt curves were obtained as described by Reinhard et. al. using a StepOne-Plus Real-Time PCR system (Applied Biosystems) and MicroAmp fast optical 96-well reaction plates (Applied Biosystems). SYPRO-Orange protein gel stain (Invitrogen) was used as a reporter dye, emitting fluorescence in the FAM channel. Total reaction volume was 25 μl; 20 μl buffer (25 mM TRIS pH 7.5, 50 mM NaCl, 1 mM DTT), 2.5 μl of 25 μM protein and 2.5 μl SYPRO-Orange dye (diluted 1:100 in ddH2O). Melt curve data were obtained in triplicate, in a temperature range of 20–95°C at a step-wise temperature increment of 1°C min^-1. Obtained data were analyzed using DSF Analysis v3.0.2 software, designed by Niesen et. al. (available via ftp://ftp.sgc.ox.ac.uk/pub/biophysics/).
(In general: Differential scanning fluorimetry follows unfolding on heating by fluorescence.)

The target in data set [2] is T1, Wild-type Sgf29 (SAGA-associated Factor 29) tandem tudor domain, residues 115-293 (human, UniProt Q96ES7 115-293).
T1 construct: also called WT Sgf29; WT; source: E. coli Rosetta BL21 DE3 PlysS, purified (Ni-NTA, TEV cleavage, SEC Superdex 75)
T1 sequence (looked up): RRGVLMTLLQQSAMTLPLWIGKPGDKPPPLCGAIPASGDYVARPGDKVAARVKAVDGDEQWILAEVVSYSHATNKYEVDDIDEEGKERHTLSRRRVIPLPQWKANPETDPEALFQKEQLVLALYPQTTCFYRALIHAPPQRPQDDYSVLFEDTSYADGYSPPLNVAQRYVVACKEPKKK
Kind of data set: ITC; peptide (generally 1.2 mM) titrated to protein (100 uM); for variants of low affinity 2.4 mM peptide to 200 uM protein; 25 mM TRIS pH 8.0, 50 mM NaCl, 1 mM DTT; one-site model. Conditions: both partners purified.

B1: WT: Wild-type Sgf29 reader domain protein (Homo sapiens, residues 115–293) (protein)
chain: RRGVLMTLLQQSAMTLPLWIGKPGDKPPPLCGAIPASGDYVARPGDKVAARVKAVDGDEQWILAEVVSYSHATNKYEVDDIDEEGKERHTLSRRRVIPLPQWKANPETDPEALFQKEQLVLALYPQTTCFYRALIHAPPQRPQDDYSVLFEDTSYADGYSPPLNVAQRYVVACKEPKKK
modifications: left off: 6xHis, end not stated, cleaved
As a reminder, the Tm is the temperature at which the thermal transition is half complete. For B1, the Tm was determined as 57.8 ± 0.1 °C in data set [1] and 57.8 °C in data set [1] (listed as WT Sgf29).

B2: D266N: Sgf29 variant, D266 substituted by asparagine (protein)
chain: RRGVLMTLLQQSAMTLPLWIGKPGDKPPPLCGAIPASGDYVARPGDKVAARVKAVDGDEQWILAEVVSYSHATNKYEVDDIDEEGKERHTLSRRRVIPLPQWKANPETDPEALFQKEQLVLALYPQTTCFYRALIHAPPQRPQDDYSVLFENTSYADGYSPPLNVAQRYVVACKEPKKK
modifications: left off: 6xHis, end not stated, cleaved
notes: Sgf29 variant, D266 substituted by asparagine
For the molecule B2, the Tm in data set [1] was 56.4 ± 0.1 °C.

B3: D266F: Sgf29 variant, D266 substituted by phenylalanine (protein)
chain: RRGVLMTLLQQSAMTLPLWIGKPGDKPPPLCGAIPASGDYVARPGDKVAARVKAVDGDEQWILAEVVSYSHATNKYEVDDIDEEGKERHTLSRRRVIPLPQWKANPETDPEALFQKEQLVLALYPQTTCFYRALIHAPPQRPQDDYSVLFEFTSYADGYSPPLNVAQRYVVACKEPKKK
modifications: left off: 6xHis, end not stated, cleaved
notes: Sgf29 variant, D266 substituted by phenylalanine
For B3, in data set [1], the Tm stood at 53.9 ± 0.5 °C and the “decrease in Tm relative to WT Sgf29” value was determined as 3.3 °C.

B4: D266Y: Sgf29 variant, D266 substituted by tyrosine (protein)
chain: RRGVLMTLLQQSAMTLPLWIGKPGDKPPPLCGAIPASGDYVARPGDKVAARVKAVDGDEQWILAEVVSYSHATNKYEVDDIDEEGKERHTLSRRRVIPLPQWKANPETDPEALFQKEQLVLALYPQTTCFYRALIHAPPQRPQDDYSVLFEYTSYADGYSPPLNVAQRYVVACKEPKKK
modifications: left off: 6xHis, end not stated, cleaved
notes: Sgf29 variant, D266 substituted by tyrosine
Regarding B4, in data set [1], the Tm worked out at 54.5 ± 0.2 °C and the “decrease in Tm relative to WT Sgf29” value stood at 3.9 °C.

B5: Y245F: Sgf29 variant, Y245 substitution (Y245F) (protein)
chain: RRGVLMTLLQQSAMTLPLWIGKPGDKPPPLCGAIPASGDYVARPGDKVAARVKAVDGDEQWILAEVVSYSHATNKYEVDDIDEEGKERHTLSRRRVIPLPQWKANPETDPEALFQKEQLVLALYPQTTCFFRALIHAPPQRPQDDYSVLFEDTSYADGYSPPLNVAQRYVVACKEPKKK
modifications: left off: 6xHis, end not stated, cleaved
B5: in data set [1], the Tm is 56.4 ± 0.1 °C.

B6: D266W: Sgf29 variant, D266 substituted by tryptophan (protein)
chain: RRGVLMTLLQQSAMTLPLWIGKPGDKPPPLCGAIPASGDYVARPGDKVAARVKAVDGDEQWILAEVVSYSHATNKYEVDDIDEEGKERHTLSRRRVIPLPQWKANPETDPEALFQKEQLVLALYPQTTCFYRALIHAPPQRPQDDYSVLFEWTSYADGYSPPLNVAQRYVVACKEPKKK
modifications: left off: 6xHis, end not stated, cleaved
notes: Sgf29 variant, D266 substituted by tryptophan
B6: in data set [1], the Tm came to 55.5 ± 0.1 °C and the “decrease in Tm relative to WT Sgf29” value worked out at 2.3 °C.

B7: D266E: Sgf29 variant, substitution of D266 by glutamic acid (protein)
chain: RRGVLMTLLQQSAMTLPLWIGKPGDKPPPLCGAIPASGDYVARPGDKVAARVKAVDGDEQWILAEVVSYSHATNKYEVDDIDEEGKERHTLSRRRVIPLPQWKANPETDPEALFQKEQLVLALYPQTTCFYRALIHAPPQRPQDDYSVLFEETSYADGYSPPLNVAQRYVVACKEPKKK
modifications: left off: 6xHis, end not stated, cleaved
notes: Sgf29 variant, substitution of D266 by glutamic acid
Consider B7, for which the Tm in data set [1] is 57.7 ± 0.1 °C.

B8: Y238F: Sgf29 variant, Y238 substituted by phenylalanine (protein)
chain: RRGVLMTLLQQSAMTLPLWIGKPGDKPPPLCGAIPASGDYVARPGDKVAARVKAVDGDEQWILAEVVSYSHATNKYEVDDIDEEGKERHTLSRRRVIPLPQWKANPETDPEALFQKEQLVLALFPQTTCFYRALIHAPPQRPQDDYSVLFEDTSYADGYSPPLNVAQRYVVACKEPKKK
modifications: left off: 6xHis, end not stated, cleaved
notes: Sgf29 variant, Y238 substituted by phenylalanine
Turning to B8, the Tm in data set [1] is 56.5 ± 0.2 °C.

B9: D266A: Sgf29 variant, D266 substituted by alanine (protein)
chain: RRGVLMTLLQQSAMTLPLWIGKPGDKPPPLCGAIPASGDYVARPGDKVAARVKAVDGDEQWILAEVVSYSHATNKYEVDDIDEEGKERHTLSRRRVIPLPQWKANPETDPEALFQKEQLVLALYPQTTCFYRALIHAPPQRPQDDYSVLFEATSYADGYSPPLNVAQRYVVACKEPKKK
modifications: left off: 6xHis, end not stated, cleaved
notes: Sgf29 variant, D266 substituted by alanine
As to B9, the midpoint of thermal melting (Tm) in data set [1] came to 55.8 ± 0.3 °C.

B10: 10-mer H3K4me3 peptide that contains G instead of R at position 8 (ARTKme3QTAGKS) (peptide)
peptide: ART[Lys(Me3)]QTAGKS
notes: The synthesis is described only for the two native 10-mer peptides
The term Kd denotes the concentration at which binding is half-saturated. B10: in data set [2], the Kd was 4 ± 0.6 µM and the dH was -8 ± 0.1 kcal/mol.

B11: 7-mer H3K4me3 peptide ARTKme3QTA (peptide)
peptide: ARTK(Me3″)QTA
notes: histone H3 N-terminal tail, 7-mer, K4 trimethylated, lacks the last three residues of the 10-mer; The synthesis is described only for the two native 10-mer peptides; also called 7-mer peptide
With B11, in data set [2], the Kd turned out to be 9 ± 0.5 µM and the dH is -7.8 ± 0.1 kcal/mol.
